Results as given in paper PMC8752837, “Structural basis of BAK activation in mitochondrial apoptosis initiation” (Nature Communications, 2022).

Experiments:
[1] = molecular target: T1, MEAS-BAK-His6 (C-terminus truncated recombinant human BAK containing C-terminal 6x histidine tag) (human) (UniProt Q16611)
T1 sequence: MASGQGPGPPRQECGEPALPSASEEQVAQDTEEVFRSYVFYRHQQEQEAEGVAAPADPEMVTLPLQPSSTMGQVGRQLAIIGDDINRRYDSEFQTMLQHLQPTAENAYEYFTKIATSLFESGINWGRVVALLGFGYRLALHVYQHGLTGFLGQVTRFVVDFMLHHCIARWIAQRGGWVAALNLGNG

[2] = molecular target: T2, Human BAK-∆TM-His6 (human); assay: SPR; MEAS-BAK-His6 captured (~500 RU) on Ni2+-charged NTA HisCap chip, peptides injected; 20 °C; 20 mM HEPES pH 8.0, 200 mM NaCl, 1 mM TCEP, 0.01% Tween20; 1:1 interaction model
T2 sequence (Q16611 whole entry, looked up): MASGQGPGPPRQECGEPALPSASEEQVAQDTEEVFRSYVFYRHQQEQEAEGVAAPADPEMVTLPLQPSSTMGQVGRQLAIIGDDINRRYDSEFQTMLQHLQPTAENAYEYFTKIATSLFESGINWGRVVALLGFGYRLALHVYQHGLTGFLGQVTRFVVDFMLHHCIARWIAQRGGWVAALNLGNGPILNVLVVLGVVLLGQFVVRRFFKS

B1: WT BAK BH3 peptide (peptide)
peptide: SASEEQVAQDTEEVFRSYVFYRHQQEQEAEGVAAPADPEMVTLPLQPSSTMGQVGRQLAIIGDDINRRYDSEFQTMLQHLQPTAENAYEYFTKIATSLFESGINWGRVVALLGFGYRLALHVYQHGLTGFLGQVTRFVVDFMLHHCIARWIAQRGGWVAALNL
modifications: N-terminal acetylation; C-terminal amidation
- Supplementary Table 1: liposome permeabilization EC50 (peptide dose against AUC, 50 nM BAK; data of Supplementary Figure 4b; also printed in Supplementary Figure 3d) [1]: 0.0358 µM

B2: BAK BH3 peptide (peptide)
peptide: B1 peptide
modifications: N-terminal acetylation; C-terminal amidation
- Kd [2]: 67 µM
